Data published in US20250223627A1, “FLUOROGENIC SUBSTRATES FOR AMINOPEPTIDASE DETECTION IN BIOFLUIDS” (GLYMPSE BIO, INC., priority 2022, published 2025).

How the values were obtained:
[1] = tested on: Probe #768, K(Acc)(Sar)G(PEG8)K(Dnp)k
[2] = tested on: a substrate (FIG. 19C)
[3] = tested on: Probe #766, K(Acc)(Hyp)G(PEG8)K(Dnp)k
[4] = tested on: most other probes (FIG. 16)
[5] = tested on: Probe #762, K(Acc)(Pro-4-Obzl)G(PEG8)K(Dnp)k
[6] = tested on: NASH-related proteases; assay: Probe cleavage in mouse plasma, NASH vs healthy (RFU per minute); format: biochemical; conditions: for disease contrast (NASH vs healthy): mouse plasma; for ability to distinguish (differentiate) between NASH and healthy samples: activity as RFU per minute in 1% mouse plasma, NASH (CDAHFD) vs healthy (CD)
Protocol: All animals were used in accordance with animal care guidelines. Plasma was obtained from these blood samples by centrifugation at 3,500 RPM for 20 min at 4° C. The plasma was stored at −80° C. until it was needed for experimental purposes.
Samples were mixed with protease substrates and quenchers/reporters in 96-well plates. The 96-well plates were read on a Biotech Synergy H1, using 465,535 excitation/emission settings.
The probes of the present application were able to measure the activity of NASH-related proteases as expressed in Relative Fluorescent Unit (RFU) per minute in the two mouse populations. Probes measuring cathepsin activity were 3-fold higher in protease cleavage kinetics in mice with NASH compared to healthy mice.
Using the method of the above example, PEGylated probes were used to measure the activity of NASH-related proteases, as expressed in RFU per minute in 1% mouse plasma samples.

[7] = molecular target: DPP4 (Homo sapiens, UniProt P27487); assay: Recombinant protease panel, probe cleavage: dpp4; format: biochemical; conditions: expressed in RFU per minute
Protocol: Substrate plates were thawed and spun down for 5 minutes to ensure the substrates were at the bottom of the wells. Proteases for each substrate plate were prepared by adding 1 protease per plate. Proteases were then diluted to 15 nM in 2 mL of specified protease buffer (see Table 5). Assay buffer was added to control wells while […] active enzyme in assay buffer was added to each sample well. Plates were spun down and then read immediately after centrifugation.

Chain of DPP4 (P27487 whole entry, species assumed): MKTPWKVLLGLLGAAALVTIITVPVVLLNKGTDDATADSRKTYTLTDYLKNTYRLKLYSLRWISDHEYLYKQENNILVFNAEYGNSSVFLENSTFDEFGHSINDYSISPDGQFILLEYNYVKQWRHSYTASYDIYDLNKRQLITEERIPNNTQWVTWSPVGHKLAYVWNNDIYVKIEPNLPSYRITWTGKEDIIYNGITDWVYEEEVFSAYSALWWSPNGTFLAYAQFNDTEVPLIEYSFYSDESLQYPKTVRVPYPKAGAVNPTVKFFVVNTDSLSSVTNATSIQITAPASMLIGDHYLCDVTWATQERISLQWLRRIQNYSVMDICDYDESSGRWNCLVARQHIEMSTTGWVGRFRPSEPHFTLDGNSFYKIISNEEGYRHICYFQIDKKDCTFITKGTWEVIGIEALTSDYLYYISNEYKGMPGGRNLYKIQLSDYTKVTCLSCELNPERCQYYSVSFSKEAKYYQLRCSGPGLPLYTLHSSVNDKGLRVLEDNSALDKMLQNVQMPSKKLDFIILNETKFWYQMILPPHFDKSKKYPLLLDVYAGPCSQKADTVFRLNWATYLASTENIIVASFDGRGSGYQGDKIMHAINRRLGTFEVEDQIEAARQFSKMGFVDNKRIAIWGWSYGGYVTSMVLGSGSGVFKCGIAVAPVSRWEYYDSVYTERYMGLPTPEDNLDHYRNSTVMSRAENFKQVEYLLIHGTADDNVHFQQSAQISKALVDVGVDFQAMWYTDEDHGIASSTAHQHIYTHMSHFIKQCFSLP

Substance: dipeptidyl-peptidase 4 (DPP4 or DPPIV)
- cleavage of fluorogenic probe by protease panel [1]: selective for dipeptidyl peptidases with strong preferences for DPP4
- cleavage of fluorogenic substrate (fluorescence over time) [2]: a substrate is rapidly cleaved by DPP4 (square markers) but remains intact in buffer alone with no protease present
- cleavage of fluorogenic probe by protease panel [3]: selective for dipeptidyl peptidases with strong preferences for DPP4

Substance: aminopeptidase n/CD13
- hydrolysis of fluorogenic probe by protease [4]: most other probes are susceptible to cleavage
- hydrolysis of fluorogenic probe by protease [5]: evade hydrolysis from Aminopeptidase N
- hydrolysis of fluorogenic probe by protease [1]: evade hydrolysis from Aminopeptidase N
- hydrolysis of fluorogenic probe by protease [3]: evade hydrolysis from Aminopeptidase N

Substance: dpp2/7
- cleavage of fluorogenic probe by protease panel [5]: Probe #762 is selective for DPP2

Substance: AK(Acc)G-PEG8-K(Dnp)-k [Probe #680]
- disease contrast (NASH vs healthy) [6]: Lys-Ala motif of Probe #678 (FIG. 13A) displays stronger disease contrast than the Ala-Lys motif of Probe #680

Substance: K(Acc)AG-PEG8-K(Dnp)-k [Probe #678]
- DPPIV (DPP4) protease activity on the probe (cleavage) [7]: needed for measuring DPPIV activity
- ability to distinguish (differentiate) between NASH and healthy samples [6]: ability to distinguish between NASH and healthy samples
- ability to distinguish (differentiate) between NASH and healthy samples ([6]; listed as probe 678): able to differentiate between NASH and healthy samples
- disease contrast (NASH vs healthy) [6]: stronger disease contrast than the Ala-Lys motif of Probe #680
